B1: ZNF649 (parent)
chain: LTEHKRIHTGKKPHVCSLCGKAFY
B2: CD207 (parent)
chain: MTVEKEAPDAHFTVDKQNISLWPR

Variants of: B1
Test: protein stability index of a GFP-peptide fusion (GPS, HEK-293T) (PSI 1-6); higher = more stable
Conditions: c terminus: a fixed tail appended
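Further: lentivirally expressed fusions sorted by FACS into six bins by GFP to DsRed ratio, PSI derived from sequencing read proportions per bin multiplied by bin number.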

| Variant | protein stability index |
| --- | --- |
| Y24L | 3.01 |
| Y24T | 3.42 |
| Y24A | 2.88 |
| Y24R | 2.42 |
| Y24M | 2.69 |
| Y24G | 3.35 |
| Y24C | 3.33 |
| Y24K | 3.3 |
| Y24D | 3.12 |
| Y24I | 1.81 |
| Y24N | 1.43 |
| Y24V | 2.33 |
| Y24P | 3.45 |
| Y24H | 3.35 |
| Y24E | 2.82 |
| Y24Q | 3.04 |
| G10K | 2.96 |
| G10S | 2.19 |
| G10L | 2.27 |
| G10D | 2.63 |
| G10P | 3.22 |
| G10A | 2.78 |
| G10I | 2.49 |
| G10C | 3.76 |
| G10Y | 2.45 |

| Variant | protein stability index |
| --- | --- |
| G10V | 2.28 |
| G10Q | 2.28 |
| G10M | 3.35 |
| G10N | 1.98 |
| G10W | 2.97 |
| G10H | 2.16 |
| G10F | 3.73 |
| G10E | 3.6 |
| G10T | 2.83 |
| C16Q | 1.93 |
| C16D | 3.15 |
| C16Y | 2.23 |
| C16V | 2.2 |
| C16A | 2.94 |
| C16P | 2.56 |
| C16N | 2.55 |
| C16L | 2.17 |
| C16S | 3.52 |
| C16K | 2.32 |
| C16H | 2.71 |
| C16I | 2.18 |
| C16M | 2.75 |
| C16T | 2.23 |
| C16F | 1.48 |
| C16G | 2.01 |

| Variant | protein stability index |
| --- | --- |
| C16E | 3.62 |
| C16R | 2.4 |
| K11P | 2.76 |
| K11D | 3.21 |
| K11Y | 2.5 |
| K11T | 2.62 |
| K11L | 2.96 |
| K11S | 2.43 |
| K11I | 2.77 |
| K11V | 2.88 |
| K11H | 2.23 |
| K11R | 1.76 |
| K11F | 2.79 |
| K11M | 2.56 |
| K11W | 3.42 |
| K11E | 3.4 |
| K11C | 2.43 |
| K11G | 2.54 |
| K11N | 2.35 |
| K11A | 2.32 |
| K11Q | 3.01 |
| H14V | 1.96 |
| H14Q | 2.97 |
| H14M | 2.86 |
| H14G | 2.22 |

| Variant | protein stability index |
| --- | --- |
| H14S | 2.25 |
| H14A | 3.54 |
| H14R | 2.2 |
| H14F | 2.4 |
| H14W | 3.52 |
| H14Y | 2.63 |
| H14C | 2.78 |
| H14N | 1.97 |
| H14D | 2.34 |
| H14P | 3.18 |
| H14T | 2.17 |
| H14L | 2.71 |
| L18I | 2.23 |
| L18C | 3.2 |
| L18K | 2.66 |
| L18D | 2.84 |
| L18G | 2.82 |
| L18S | 2.89 |
| L18Q | 2.9 |
| L18Y | 2.2 |
| L18E | 3.18 |
| L18P | 3.85 |
| L18H | 3.13 |
| L18A | 1.97 |
| L18R | 3 |

| Variant | protein stability index |
| --- | --- |
| L18T | 2.35 |
| L18W | 1.7 |
| L18M | 3.36 |
| L18N | 5.08 |
| L18V | 2.37 |
| S17T | 1.82 |
| S17M | 2.83 |
| S17I | 2.48 |
| S17V | 1.49 |
| S17N | 2.58 |
| S17H | 2.01 |
| S17F | 2.2 |
| S17A | 2.58 |
| S17G | 1.72 |
| S17K | 2.34 |
| S17Y | 2.11 |
| S17W | 2.72 |
| S17L | 1.72 |
| S17C | 1.96 |
| S17P | 2.97 |
| S17R | 1.94 |
| S17E | 2.84 |
| S17Q | 2.46 |
| K12L | 2.5 |
| K12M | 2.28 |

| Variant | protein stability index |
| --- | --- |
| K12Y | 2.32 |
| K12G | 3.6 |
| K12R | 2.61 |
| K12Q | 2.39 |
| K12D | 3.14 |
| K12A | 2.44 |
| K12F | 2.32 |
| K12T | 1.79 |
| K12V | 3.42 |
| K12H | 1.97 |
| K12S | 1.78 |
| K12N | 3.3 |
| K12P | 2.31 |
| K12C | 2.81 |
| K12E | 2.75 |
| K12W | 2.27 |
| K12I | 2.5 |
| A22R | 3.22 |
| A22N | 3.23 |
| A22S | 2.55 |
| A22Q | 2.26 |
| A22E | 2.24 |
| A22D | 2.51 |
| A22P | 2.9 |
| A22L | 2.27 |

| Variant | protein stability index |
| --- | --- |
| A22W | 2.48 |
| A22T | 3.41 |
| A22G | 2.56 |
| A22K | 3.71 |
| A22V | 2.85 |
| A22M | 2.85 |
| A22F | 2.16 |
| A22H | 2.46 |
| A22I | 2.62 |
| A22C | 2.55 |
| K21L | 1.77 |
| K21N | 3.08 |
| K21W | 2.15 |
| K21S | 2.44 |
| K21I | 2.11 |
| K21H | 1.91 |
| K21T | 2.78 |
| K21E | 2.67 |
| K21D | 2.72 |
| K21F | 1.73 |
| K21G | 2.38 |
| K21V | 3.11 |
| K21M | 1.98 |
| K21P | 2.55 |
| K21A | 2.03 |

| Variant | protein stability index |
| --- | --- |
| K21C | 1.39 |
| K21Q | 3.8 |
| K21Y | 1.79 |
| H8I | 2.17 |
| H8C | 3.2 |
| H8Y | 2.89 |
| H8P | 4.21 |
| H8F | 2.71 |
| H8Q | 3.1 |
| H8A | 2.86 |
| H8M | 2.49 |
| H8D | 2.67 |
| H8L | 2.29 |
| H8G | 2.13 |
| H8V | 2.18 |
| H8T | 2.58 |
| H8E | 3.25 |
| H8K | 2.14 |
| H8W | 2.06 |
| H8R | 4.2 |
| T9M | 2.85 |
| T9Q | 2.31 |
| T9V | 3.62 |
| T9S | 3.36 |
| T9I | 1.87 |

| Variant | protein stability index |
| --- | --- |
| T9E | 2.98 |
| T9A | 2.04 |
| T9R | 2.45 |
| T9P | 2.85 |
| T9D | 3.3 |
| T9Y | 2.3 |
| T9F | 2.8 |
| T9G | 2.8 |
| T9K | 2.35 |
| T9H | 3.04 |
| T9L | 2.51 |
| T9W | 3.49 |
| T9C | 2.32 |
| P13N | 2.15 |
| P13K | 2.03 |
| P13V | 3.06 |
| P13E | 2.96 |
| P13S | 2.33 |
| P13Q | 2.26 |
| P13D | 1.8 |
| P13M | 3.06 |
| P13L | 2.32 |
| P13H | 2.29 |
| P13F | 2.23 |
| P13G | 2.48 |

| Variant | protein stability index |
| --- | --- |
| P13T | 3.55 |
| P13Y | 2.88 |
| P13I | 2.84 |
| P13R | 3.48 |
| F23I | 2.45 |
| F23P | 3.32 |
| F23N | 2.4 |
| F23M | 2.56 |
| F23Y | 2.47 |
| F23K | 3.87 |
| F23H | 4.3 |
| F23S | 2.97 |
| F23T | 2.32 |
| F23R | 2.69 |
| F23W | 1.52 |
| F23G | 2.67 |
| F23C | 3.07 |
| F23E | 3.69 |
| F23Q | 2.3 |
| F23V | 2.32 |
| F23A | 2.77 |
| F23D | 3.98 |
| G20W | 2.59 |
| G20V | 1.94 |
| G20H | 1.6 |

| Variant | protein stability index |
| --- | --- |
| G20R | 2.05 |
| G20N | 3.49 |
| G20C | 2.93 |
| G20D | 2.79 |
| G20Q | 3.04 |
| G20T | 1.55 |
| G20I | 1.91 |
| G20L | 2.06 |
| G20F | 1.97 |
| G20A | 3.75 |
| G20K | 1.24 |
| G20M | 2.56 |
| G20Y | 2.9 |
| G20P | 1.91 |
| G20S | 2.35 |
| I7H | 2.16 |
| I7C | 2.6 |
| I7D | 2.31 |
| I7P | 2.38 |
| I7G | 2.78 |
| I7M | 2.4 |
| I7N | 2.85 |
| I7Q | 2.73 |
| I7E | 2.71 |
| I7V | 2.58 |

| Variant | protein stability index |
| --- | --- |
| I7W | 2.5 |
| I7R | 3.93 |
| I7F | 2.18 |
| I7L | 3.11 |
| I7K | 1.98 |
| I7T | 2.71 |
| I7S | 3.72 |
| C19Q | 2.04 |
| C19L | 2.24 |
| C19P | 2.38 |
| C19G | 2.39 |
| C19V | 2.1 |
| C19M | 2.46 |
| C19D | 3.3 |
| C19W | 1.3 |
| C19H | 3.06 |
| C19N | 2.89 |
| C19R | 3.01 |
| C19Y | 2.15 |
| C19A | 2.65 |
| C19E | 3.09 |
| C19I | 1.75 |
| C19T | 2.24 |
| C19F | 1.81 |
| C19K | 2.64 |

| Variant | protein stability index |
| --- | --- |
| C19S | 1.92 |
| V15I | 2.69 |
| V15G | 2.56 |
| V15E | 2.56 |
| V15A | 1.54 |
| V15T | 2.46 |
| V15D | 2.93 |
| V15H | 2.34 |
| V15F | 2.42 |
| V15Q | 2.35 |
| V15W | 1.83 |
| V15R | 2.32 |
| V15C | 2.6 |
| V15N | 2.05 |
| V15L | 1.89 |
| V15Y | 2.55 |
| V15P | 2.71 |
| V15M | 2.98 |
| V15K | 2.9 |
| V15S | 2.23 |

Variants of: B2
Test: as above
Conditions: c terminus: a fixed tail appended

| Variant | protein stability index |
| --- | --- |
| M1A | 3.62 |
| M1C | 3.38 |
| M1D | 4.23 |
| M1P | 4.17 |
| M1R | 3.98 |
| M1L | 3.07 |
| M1I | 2.8 |
| M1N | 3.68 |
| M1K | 2.81 |
| M1E | 3.36 |
| M1G | 4.16 |
| M1H | 3.27 |
| M1F | 2.11 |
| M1Q | 3.8 |

Source: the supplement of paper PMC10567573
